One block for each molecule: values may come before it.
How the values were obtained:
[1] = target: ADAM9 on human tumour cells (LS174T, HepG2, Calu-3) (human) (UniProt Q13443); experiment: flow cytometry on HepG2 cells, negative control, 15.625 nM
[2] = target: ADAM9 on human tumour cells (LS174T, HepG2, Calu-3) (human) (UniProt Q13443); experiment: flow cytometry on LS174T cells, negative control, 0.976563 nM
[3] = target: ADAM9 on human tumour cells (LS174T, HepG2, Calu-3) (human) (UniProt Q13443); experiment: flow cytometry on HepG2 cells, negative control, 0.015259 nM
[4] = target: ADAM9 on human tumour cells (LS174T, HepG2, Calu-3) (human) (UniProt Q13443); experiment: flow cytometry on LS174T cells, negative control, 0.003815 nM
[5] = target: ADAM9 on human tumour cells (LS174T, HepG2, Calu-3) (human) (UniProt Q13443); experiment: flow cytometry on HepG2 cells, negative control, 0.003815 nM
[6] = target: ADAM9 on human tumour cells (LS174T, HepG2, Calu-3) (human) (UniProt Q13443); experiment: flow cytometry on LS174T cells, negative control, 62.5 nM
[7] = target: ADAM9 on human tumour cells (LS174T, HepG2, Calu-3) (human) (UniProt Q13443); experiment: flow cytometry on LS174T cells, negative control, 250 nM
[8] = target: ADAM9 on human tumour cells (LS174T, HepG2, Calu-3) (human) (UniProt Q13443); experiment: flow cytometry on LS174T cells, negative control, 15.625 nM
[9] = target: ADAM9 on human tumour cells (LS174T, HepG2, Calu-3) (human) (UniProt Q13443); experiment: flow cytometry on LS174T cells, negative control, 1000 nM
[10] = target: ADAM9 on human tumour cells (LS174T, HepG2, Calu-3) (human) (UniProt Q13443); experiment: flow cytometry on LS174T cells, negative control, 0.244141 nM
[11] = target: ADAM9 on human tumour cells (LS174T, HepG2, Calu-3) (human) (UniProt Q13443); experiment: flow cytometry on LS174T cells, negative control, 3.906250 nM
[12] = target: ADAM9 on human tumour cells (LS174T, HepG2, Calu-3) (human) (UniProt Q13443); experiment: flow cytometry on LS174T cells, negative control, 0.015259 nM
[13] = target: ADAM9 on human tumour cells (LS174T, HepG2, Calu-3) (human) (UniProt Q13443); experiment: flow cytometry on HepG2 cells, negative control, 62.5 nM
[14] = target: ADAM9 on human tumour cells (LS174T, HepG2, Calu-3) (human) (UniProt Q13443); experiment: flow cytometry on HepG2 cells, negative control, 0.061035 nM
[15] = target: ADAM9 on human tumour cells (LS174T, HepG2, Calu-3) (human) (UniProt Q13443); experiment: flow cytometry on HepG2 cells, negative control, 0.244141 nM
[16] = target: ADAM9 on human tumour cells (LS174T, HepG2, Calu-3) (human) (UniProt Q13443); experiment: flow cytometry on HepG2 cells, negative control, 0.000238 nM
[17] = target: ADAM9 on human tumour cells (LS174T, HepG2, Calu-3) (human) (UniProt Q13443); experiment: flow cytometry on HepG2 cells, negative control, 250 nM
[18] = target: ADAM9 on human tumour cells (LS174T, HepG2, Calu-3) (human) (UniProt Q13443); experiment: flow cytometry on HepG2 cells, negative control, 3.906250 nM
[19] = target: ADAM9 on human tumour cells (LS174T, HepG2, Calu-3) (human) (UniProt Q13443); experiment: flow cytometry on LS174T cells, negative control, 0.061035 nM
[20] = target: ADAM9 on human tumour cells (LS174T, HepG2, Calu-3) (human) (UniProt Q13443); experiment: flow cytometry on HepG2 cells, negative control, 0.976563 nM
[21] = target: ADAM9 on human tumour cells (LS174T, HepG2, Calu-3) (human) (UniProt Q13443); experiment: flow cytometry on HepG2 cells, negative control, 1000 nM
[22] = target: ADAM9 on human tumour cells (LS174T, HepG2, Calu-3) (human) (UniProt Q13443); experiment: flow cytometry on LS174T cells, negative control, 0.000954 nM
[23] = target: ADAM9 on human tumour cells (LS174T, HepG2, Calu-3) (human) (UniProt Q13443); experiment: flow cytometry on HepG2 cells, negative control, 0.000954 nM
[24] = target: ADAM9 on human tumour cells (LS174T, HepG2, Calu-3) (human) (UniProt Q13443); experiment: flow cytometry on HepG2 cells, 0.000238 nM
[25] = target: ADAM9 on human tumour cells (LS174T, HepG2, Calu-3) (human) (UniProt Q13443); experiment: flow cytometry on HepG2 cells, 0.003815 nM
[26] = target: ADAM9 on human tumour cells (LS174T, HepG2, Calu-3) (human) (UniProt Q13443); experiment: flow cytometry on HepG2 cells, 1000 nM
[27] = target: ADAM9 on human tumour cells (LS174T, HepG2, Calu-3) (human) (UniProt Q13443); experiment: flow cytometry on HepG2 cells, 0.015259 nM
[28] = target: ADAM9 on human tumour cells (LS174T, HepG2, Calu-3) (human) (UniProt Q13443); experiment: flow cytometry on HepG2 cells, 0.061035 nM
[29] = target: ADAM9 on human tumour cells (LS174T, HepG2, Calu-3) (human) (UniProt Q13443); experiment: flow cytometry on HepG2 cells, 0.244141 nM
[30] = target: ADAM9 on human tumour cells (LS174T, HepG2, Calu-3) (human) (UniProt Q13443); experiment: flow cytometry on HepG2 cells, 0.000954 nM
[31] = target: ADAM9 on human tumour cells (LS174T, HepG2, Calu-3) (human) (UniProt Q13443); experiment: flow cytometry on HepG2 cells, 15.625 nM
[32] = target: ADAM9 on human tumour cells (LS174T, HepG2, Calu-3) (human) (UniProt Q13443); experiment: flow cytometry on HepG2 cells, 62.5 nM
[33] = target: ADAM9 on human tumour cells (LS174T, HepG2, Calu-3) (human) (UniProt Q13443); experiment: flow cytometry on HepG2 cells, 3.906250 nM
[34] = target: ADAM9 on human tumour cells (LS174T, HepG2, Calu-3) (human) (UniProt Q13443); experiment: flow cytometry on HepG2 cells, 0.976563 nM
[35] = target: ADAM9 on human tumour cells (LS174T, HepG2, Calu-3) (human) (UniProt Q13443); experiment: flow cytometry on HepG2 cells, 250 nM
[36] = target: ADAM9 on human tumour cells (LS174T, HepG2, Calu-3) (human) (UniProt Q13443); experiment: flow cytometry on LS174T cells, 0.976563 nM
[37] = target: ADAM9 on human tumour cells (LS174T, HepG2, Calu-3) (human) (UniProt Q13443); experiment: flow cytometry on LS174T cells, 0.003815 nM
[38] = target: ADAM9 on human tumour cells (LS174T, HepG2, Calu-3) (human) (UniProt Q13443); experiment: flow cytometry on LS174T cells, 0.061035 nM
[39] = target: ADAM9 on human tumour cells (LS174T, HepG2, Calu-3) (human) (UniProt Q13443); experiment: flow cytometry on LS174T cells, 0.000954 nM
[40] = target: ADAM9 on human tumour cells (LS174T, HepG2, Calu-3) (human) (UniProt Q13443); experiment: flow cytometry on LS174T cells, 0.015259 nM
[41] = target: ADAM9 on human tumour cells (LS174T, HepG2, Calu-3) (human) (UniProt Q13443); experiment: flow cytometry on LS174T cells, 62.5 nM
[42] = target: ADAM9 on human tumour cells (LS174T, HepG2, Calu-3) (human) (UniProt Q13443); experiment: flow cytometry on LS174T cells, 250 nM
[43] = target: ADAM9 on human tumour cells (LS174T, HepG2, Calu-3) (human) (UniProt Q13443); experiment: flow cytometry on LS174T cells, 15.625 nM
[44] = target: ADAM9 on human tumour cells (LS174T, HepG2, Calu-3) (human) (UniProt Q13443); experiment: flow cytometry on LS174T cells, 0.244141 nM
[45] = target: ADAM9 on human tumour cells (LS174T, HepG2, Calu-3) (human) (UniProt Q13443); experiment: flow cytometry on LS174T cells, 1000 nM
[46] = target: ADAM9 on human tumour cells (LS174T, HepG2, Calu-3) (human) (UniProt Q13443); experiment: flow cytometry on LS174T cells, 3.906250 nM

Chain of ADAM9 on human tumour cells (LS174T, HepG2, Calu-3) (human) (Q13443 29-819): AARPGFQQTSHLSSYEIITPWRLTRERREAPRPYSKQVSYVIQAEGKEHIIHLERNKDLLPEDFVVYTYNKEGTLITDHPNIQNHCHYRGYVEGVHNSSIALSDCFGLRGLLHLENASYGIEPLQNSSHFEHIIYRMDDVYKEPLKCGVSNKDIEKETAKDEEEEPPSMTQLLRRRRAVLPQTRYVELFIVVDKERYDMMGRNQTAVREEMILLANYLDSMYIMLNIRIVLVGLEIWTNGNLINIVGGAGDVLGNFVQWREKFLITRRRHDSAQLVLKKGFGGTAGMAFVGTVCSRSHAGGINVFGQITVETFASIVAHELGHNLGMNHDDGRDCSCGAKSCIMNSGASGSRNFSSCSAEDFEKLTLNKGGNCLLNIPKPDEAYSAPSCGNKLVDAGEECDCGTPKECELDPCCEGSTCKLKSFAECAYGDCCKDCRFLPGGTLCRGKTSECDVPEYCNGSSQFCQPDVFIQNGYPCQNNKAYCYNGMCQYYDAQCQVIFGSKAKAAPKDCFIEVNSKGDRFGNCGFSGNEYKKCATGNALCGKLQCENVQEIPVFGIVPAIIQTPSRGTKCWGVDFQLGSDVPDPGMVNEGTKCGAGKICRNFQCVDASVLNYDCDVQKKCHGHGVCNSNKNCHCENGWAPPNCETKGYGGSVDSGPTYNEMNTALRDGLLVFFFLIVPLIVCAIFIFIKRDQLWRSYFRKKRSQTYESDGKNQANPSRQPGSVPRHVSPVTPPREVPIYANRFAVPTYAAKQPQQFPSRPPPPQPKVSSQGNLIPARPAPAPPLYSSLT

Molecule: anti-HIV human IgG antibody (iso-IgG1, produced by WuXi AppTec)
Mean fluorescence intensity (MFI) [1]: 364 MFI | Mean fluorescence intensity [2]: 212 MFI | Mean fluorescence intensity (MFI) [3]: 371 MFI | Mean fluorescence intensity [4]: 254 MFI | Mean fluorescence intensity (MFI) [5]: 349 MFI | Mean fluorescence intensity [6]: 229 MFI | Mean fluorescence intensity [7]: 269 MFI | Mean fluorescence intensity [8]: 209 MFI | Mean fluorescence intensity [9]: 368 MFI | Mean fluorescence intensity [10]: 208 MFI | Mean fluorescence intensity [11]: 203 MFI | Mean fluorescence intensity [12]: 213 MFI | Mean fluorescence intensity (MFI) [13]: 386 MFI | Mean fluorescence intensity (MFI) [14]: 377 MFI | Mean fluorescence intensity (MFI) [15]: 363 MFI | Mean fluorescence intensity (MFI) [16]: 361 MFI | Mean fluorescence intensity (MFI) [17]: 389 MFI | Mean fluorescence intensity (MFI) [18]: 361 MFI | Mean fluorescence intensity [19]: 202 MFI | Mean fluorescence intensity (MFI) [20]: 360 MFI | Mean fluorescence intensity (MFI) [21]: 690 MFI | Mean fluorescence intensity [22]: 220 MFI | Mean fluorescence intensity (MFI) [23]: 365 MFI

Mean fluorescence intensity (MFI) [24]: 370 MFI | Mean fluorescence intensity (MFI) [25]: 396 MFI | Mean fluorescence intensity (MFI) [26]: 17400 MFI | Mean fluorescence intensity (MFI) [27]: 451 MFI | Mean fluorescence intensity (MFI) [28]: 623 MFI | Mean fluorescence intensity (MFI) [29]: 1090 MFI | Mean fluorescence intensity (MFI) [30]: 376 MFI | Mean fluorescence intensity (MFI) [31]: 2960 MFI | Mean fluorescence intensity (MFI) [32]: 3290 MFI | Mean fluorescence intensity (MFI) [33]: 1780 MFI | Mean fluorescence intensity (MFI) [34]: 1790 MFI | Mean fluorescence intensity (MFI) [35]: 16600 MFI
B1: Ab16-X1 (antibody, human IgG1, kappa, V domains shown)
VH: QVQLQQPGTEVVKPGASVKLSCKASGFTFPLYWMHWVRQRPGRGLEWIGRIIPIFGHTKYNEKFKNKATLTADESSSTAYMELRSLTSDDSAVYYCARGGYYYYPREGFLDYWGQGTSVTVSS
VL: DIVMTQSPASLSVSPGERASISCRSSQSVDYSGDSYMNWYQQKPGQSPRLLIYAASDRESGVPDRFSGSGSGTDFTLKISRVEEEDAGTYYCQQSREDPFTFGQGTKVDIKR
modifications: linker-payload X1 (camptothecin derivative) conjugated after TCEP reduction; DAR p = 7.8 for the whole antibody; positions not given

Mean fluorescence intensity [36]: 1960 MFI | Mean fluorescence intensity [37]: 219 MFI | Mean fluorescence intensity [38]: 447 MFI | Mean fluorescence intensity [39]: 223 MFI | Mean fluorescence intensity [40]: 268 MFI | Mean fluorescence intensity [41]: 2160 MFI | Mean fluorescence intensity [42]: 2130 MFI | Mean fluorescence intensity [43]: 2400 MFI | Mean fluorescence intensity [44]: 954 MFI | Mean fluorescence intensity [45]: 1130 MFI | Mean fluorescence intensity [46]: 2380 MFI
B2: Ab16-X2 (antibody, human IgG1, kappa, V domains shown)
VH: B1 VH
VL: B1 VL
modifications: linker-payload X2 (camptothecin derivative) conjugated after TCEP reduction; DAR p = 7.9 for the whole antibody; positions not given
